# Test results from patent US10624968B2, “Compounds for treating cancer” (Bicycle Therapeutics Limited, priority 2017, dated 2020).
# Where two headings read alike, the source gives them in different places. Starred links: 1 amine or outer side, 2 acyl side, 3 side chain; linkers in the order of their positions; H or OH if unused. Positions of bridges follow the written chain, without caps; N, C: chain ends. Non-standard residues stand in square brackets, D forms with d. Residues, ends and D or L forms follow the SMILES beside them. Chains are numbered I, II in the order given. ξ: configuration not given here. *: point of attachment. Dolaproine = CO[C@@H]([C@@H]1CCCN1)[C@@H](C)C(=O)O; Dil = CC[C@H](C)[C@H](NC)[C@@H](CC(=O)O)OC; TBMB = c1c(C[*:1])cc(C[*:3])cc1C[*:2]; X2 = O=C(CCCC(=O)[*:2])NCCC(=O)[*:1]; PABC = O=C(OCc1ccc(N[*:1])cc1)[*:2]; X1 = C[C@@H](N*)[C@@H](O)c1ccccc1; ξ1Nal = NC(Cc1cccc2ccccc12)C(=O)O; Cit = NC(=O)NCCC[C@H](N)C(=O)O; NMeV = CN[C@H](C(=O)O)C(C)C; ξY = NC(Cc1ccc(O)cc1)C(=O)O; ξTle = CC(C)(C)C(N)C(=O)O; ξF = NC(Cc1ccccc1)C(=O)O; ξE = NC(CCC(=O)O)C(=O)O; ξD = NC(CC(=O)O)C(=O)O; ξN = NC(=O)CC(N)C(=O)O; ξC = NC(CS)C(=O)O; ξA = CC(N)C(=O)O; Sar = CNCC(=O)O
# Assays:
# EBC-1 = assay: cells; conditions: read-out: Re IC50; EBC-1; 72 hours
# Excerpt: (§1) Details of the initial cell plating procedure are described in Table 3.
# (§2) Data Details for Tables 5 and 6. Inhibition %=(Max−Sample value)/(Max−Min)*100.
# (§3) The IC50 curves were generated by 4 Parameter Logistic Model—Sigmoidal Dose-Response Model as follows: Y=Bottom+(Top−Bottom)/(1+10^((log EC50-X)*HillSlope)).
# HCC1806 = assay: cells; conditions: read-out: Re IC50; HCC1806; 72 hours
# Excerpt: as §1, §2, §3
# HCT15 = assay: cells; conditions: read-out: Re IC50; HCT15; 72 hours
# Excerpt: as §1, §2, §3
# HT1080 = assay: cells; conditions: read-out: Re IC50; HT1080; 72 hours
# Excerpt: as §1, §2, §3
# HT29 = assay: cells; conditions: read-out: Re IC50; HT29; 72 hours
# Excerpt: as §1, §2, §3
# MDA-MB-231 = assay: cells; conditions: read-out: Re IC50; MDA-MB-231; 72 hours
# Excerpt: as §1, §2, §3
# MOLP-8 = assay: cells; conditions: read-out: Re IC50; MOLP-8; 72 hours
# Excerpt: as §1, §2, §3
# NCI-H1975 = assay: cells; conditions: read-out: Re IC50; NCI-H1975; 72 hours
# Excerpt: as §1, §2, §3
# NCI-H292 = assay: cells; conditions: read-out: Re IC50; NCI-H292; 72 hours
# Excerpt: as §1, §2, §3
# PC-3 = assay: cells; conditions: read-out: Re IC50; PC-3; 72 hours
# Excerpt: as §1, §2, §3
# SNU-16 = assay: cells; conditions: read-out: Re IC50; SNU-16; 72 hours
# Excerpt: as §1, §2, §3
# [1] = Body weight of mice bearing EBC-1 xenograft (indirect measure of toxicity); assay type: in vivo, mouse
# Method: All the procedures related to animal handling, care and the treatment in the study were performed according to the guidelines of the Association for Assessment and Accreditation of Laboratory Animal Care (AAALAC). At the time of routine monitoring, the animals were daily checked for any effects of tumor growth and treatments on normal behavior such as mobility, food and water consumption (by looking only), body weight gain/loss (body weights were measured every day), eye/hair matting and any other abnormal effect as stated in the protocol. Death and observed clinical signs were recorded on the basis of the numbers of animals within each subset.
# Animal body weight was monitored regularly as an indirect measure of toxicity.
# HT1080 cells = assay: Cytotoxicity in HT1080 cells in presence and absence of 1 mM bacitracin (ATPlite, 24 hour exposure)
# Method: HT1080 cells (ATCC, via LGC, BIC918) Maintained in EMEM media (Sigma M2279)+10% FBS (Sigma Code F7524)+4 mM L-Glu (Invitrogen Cat 25030-024)
# I-1a and Toxins with Bacitracin—24 or 72 Hour Exposure in 96 Well Plates
# DB seeded cells in normal media, 75 μL in 96 well clear plates, ˜24 hours previous.
# HT1080—7.5 k cells/well: 50% confluent upon dosing.
# Dilute in media 1:42.85=5 μL DMSO dilute+209 μL media=>use 15 μL per well
# This gives a 5 μM top concentration for BDCs in assay
# Add 10 µL of media±bacitracin (2 plates of each)−leave for 1 hr
# (§4) Bacitracin=1 mM final concentration. This requires a 10 mM concentration with no DMSO.
# Add 15 μL treatment per well as in Table 19, below.
# Seal plates with gas permeable membrane and incubate at 37° C.
# Washout HT1080 plates with 2×150 μL PBS at 24 h and add 100 μL fresh media
# At t=72 h, equilibrate ATPlite reagent to room temperature. Add 10 ml buffer to each vial of lyophilized substrate. Add 100 μL reagent per well. Seal with PCR seal and cover to protect from light. Shake for 20 mins before reading luminescence
# L540 cells = assay: Cytotoxicity in L540 cells in presence and absence of 1 mM bacitracin (ATPlite, 72 hour exposure); assay type: cell-based
# Method: L540 cells (DSMZ # ACC72, BIC5121), maintained in RPMI-1640 medium (Sigma # R8758)+20% heat-inactivated serum
# L540—20 k cells/well: 40% confluent upon dosing.
# as §4
# Add 100 μL reagent per well. […] Shake for 20 mins before reading luminescence
smiles,measurement,setting,value
CC[C@H](C)[C@@H]([C@@H](CC(=O)N1CCC[C@H]1[C@H](OC)[C@@H](C)C(=O)N[C@H](C)[C@@H](O)c1ccccc1)OC)N(C)C(=O)[C@@H](NC(=O)[C@H](C(C)C)N(C)C(=O)OCc1ccc(NC(=O)[C@H](CCCNC(N)=O)NC(=O)[C@@H](NC(=O)CCCC(=O)NCCC(=O)N(C)CC(=O)N(C)CC(=O)N(C)CC(=O)N(C)CC(=O)N(C)CC(=O)N(C)CC(=O)N(C)CC(=O)N(C)CC(=O)N(C)CC(=O)N(C)CC(=O)NC(C)C(=O)NC2CSCc3cc4cc(c3)CSCC(NC(=O)C(C)NC(=O)C(Cc3cccc5ccccc35)NC(=O)C(CCC(=O)O)NC(=O)C(CC(N)=O)NC(=O)C(C)NC2=O)C(=O)NC(CCC(=O)O)C(=O)NC(CC(=O)O)C(=O)NC(Cc2ccccc2)C(=O)NC(Cc2ccc(O)cc2)C(=O)NC(CC(=O)O)C(=O)NC(C(C)(C)C)C(=O)NC(C(N)=O)CSC4)C(C)C)cc1)C(C)C (some centres unmarked) [Compound I-1a] (I: [Sar][Sar][Sar][Sar][Sar][Sar][Sar][Sar][Sar][Sar][ξA][ξC][ξA][ξN][ξE][ξ1Nal][ξA][ξC][ξE][ξD][ξF][ξY][ξD][ξTle][ξC]-NH2 / II: V[Cit][PABC][NMeV]V[Dil][Dolaproine]-X1; linker I:12-I:18-I:25 via TBMB; linker I:N-II:N via X2),IC50,EBC-1,35.7 nM
same,IC50,HCC1806,15.2 nM
same,IC50,HCT15,> 5000 nM
same,IC50,HT1080,21.4 nM
same,IC50,HT29,219 nM
same,IC50,MDA-MB-231,211 nM
same,IC50,MOLP-8,197 nM
same,IC50,NCI-H1975,24.2 nM
same,IC50,NCI-H292,56.2 nM
same,IC50,PC-3,102 nM
same,IC50,SNU-16,63.3 nM
same,Body Weight,"[1]; 1 mg/kg i.v. tiw x2 w, day 0",23.4 g
same,Body Weight,"[1]; 1 mg/kg i.v. tiw x2 w, day 2",23.3 g
same,Body Weight,"[1]; 1 mg/kg i.v. tiw x2 w, day 4",23.6 g
same,Body Weight,"[1]; 1 mg/kg i.v. tiw x2 w, day 7",23.8 g
same,Body Weight,"[1]; 1 mg/kg i.v. tiw x2 w, day 9",24.0 g
same,Body Weight,"[1]; 1 mg/kg i.v. tiw x2 w, day 11",24.0 g
same,Body Weight,"[1]; 1 mg/kg i.v. tiw x2 w, day 14",23.8 g
same,Body Weight,"[1]; 3 mg/kg i.v. tiw x2 w, day 0",21.9 g
same,Body Weight,"[1]; 3 mg/kg i.v. tiw x2 w, day 2",21.4 g
same,Body Weight,"[1]; 3 mg/kg i.v. tiw x2 w, day 4",21.7 g
same,Body Weight,"[1]; 3 mg/kg i.v. tiw x2 w, day 7",22.3 g
same,Body Weight,"[1]; 3 mg/kg i.v. tiw x2 w, day 9",22.4 g
same,Body Weight,"[1]; 3 mg/kg i.v. tiw x2 w, day 11",22.0 g
same,Body Weight,"[1]; 3 mg/kg i.v. tiw x2 w, day 14",22.0 g
same,Body Weight,"[1]; 10 mg/kg i.v. tiw x2 w, day 0",23.1 g
same,Body Weight,"[1]; 10 mg/kg i.v. tiw x2 w, day 2",21.8 g
same,Body Weight,"[1]; 10 mg/kg i.v. tiw x2 w, day 4",20.8 g
same,Body Weight,"[1]; 10 mg/kg i.v. tiw x2 w, day 7",19.3 g
same,Body Weight,"[1]; 10 mg/kg i.v. tiw x2 w, day 9",22.0 g
same,Body Weight,"[1]; 10 mg/kg i.v. tiw x2 w, day 11",20.6 g
same,Body Weight,"[1]; 10 mg/kg i.v. tiw x2 w, day 14",22.4 g
same,effect on body weight (in words),"[1]; 10 mg/kg, 3× weekly schedule for two weeks",brief body weight loss which is reversible upon discontinuation of treatment
same,IC50,"HT1080 cells; read-out: IC50 with 1 mM bacitracin, 24 hour exposure, + 1 mM bacitracin (PDI inhibitor)",7.3 nM
same,IC50,"HT1080 cells; read-out: Standard IC50, 24 hour exposure (high MT1 expression), no block",5.3 nM
same,IC50,"L540 cells; 72 hour exposure (low/no MT1 expression), no block, read-out: Standard IC50",1090 nM
same,Fold shift with bacitracin,"L540 cells; 72 hour exposure, 1 mM bacitracin vs none",2.3
same,IC50,"L540 cells; read-out: IC50 with 1 mM bacitracin, 72 hour exposure, + 1 mM bacitracin",2550 nM
